Data taken from patent US10501734B2, “Compositions and methods of use thereof for making polypeptides with many instances of nonstandard amino acids” (Yale University, priority 2014, dated 2019).

B1: pAcFRS.1.t1: pAcFRS variant A167D, R257G, SEQ ID NO: 5 (protein)
chain: MDEFEMIKRNTSEIISEEELREVLKKDEKSALIGFEPSGKIHLGHYLQIKKMIDLQNAGFDIIILLADLHAYLNQKGELDEIRKIGDYNKKVFEAMGLKAKYVYGSEFQLDKDYTLNVYRLALKTTLKRARRSMELIAREDENPKVAEVIYPIMQVNGCHYRGVDVDVGGMEQRKIHMLARELLPKKVVCIHNPVLTGLDGEGKMSSSKGNFIAVDDSPEEIRAKIKKAYCPAGVVEGNPIMEIAKYFLEYPLTIKGPEKFGGDLTVNSYEELESLFKNKELHPMRLKNAVAEELIKILEPIRKRL
B2: pAcFRS: progenitor M. jannaschii based p-acetyl-L-phenylalanine AARS, SEQ ID NO:1 (Young, et al., 2010) (protein, listed as Methanocaldococcus jannaschii)
chain: MDEFEMIKRNTSEIISEEELREVLKKDEKSALIGFEPSGKIHLGHYLQIKKMIDLQNAGFDIIILLADLHAYLNQKGELDEIRKIGDYNKKVFEAMGLKAKYVYGSEFQLDKDYTLNVYRLALKTTLKRARRSMELIAREDENPKVAEVIYPIMQVNGCHYRGVDVAVGGMEQRKIHMLARELLPKKVVCIHNPVLTGLDGEGKMSSSKGNFIAVDDSPEEIRAKIKKAYCPAGVVEGNPIMEIAKYFLEYPLTIKRPEKFGGDLTVNSYEELESLFKNKELHPMRLKNAVAEELIKILEPIRKRL
B3: pAzFRS.2.t1: pAcFRS variant E107T, F108Y, Q109M, R257G, SEQ ID NO: 14 (protein)
chain: MDEFEMIKRNTSEIISEEELREVLKKDEKSALIGFEPSGKIHLGHYLQIKKMIDLQNAGFDIIILLADLHAYLNQKGELDEIRKIGDYNKKVFEAMGLKAKYVYGSTYMLDKDYTLNVYRLALKTTLKRARRSMELIAREDENPKVAEVIYPIMQVNGCHYRGVDVAVGGMEQRKIHMLARELLPKKVVCIHNPVLTGLDGEGKMSSSKGNFIAVDDSPEEIRAKIKKAYCPAGVVEGNPIMEIAKYFLEYPLTIKGPEKFGGDLTVNSYEELESLFKNKELHPMRLKNAVAEELIKILEPIRKRL
B4: pAcFRS.2.t1: pAcFRS variant L65V, A167D, R257G, SEQ ID NO: 8 (protein)
chain: MDEFEMIKRNTSEIISEEELREVLKKDEKSALIGFEPSGKIHLGHYLQIKKMIDLQNAGFDIIIVLADLHAYLNQKGELDEIRKIGDYNKKVFEAMGLKAKYVYGSEFQLDKDYTLNVYRLALKTTLKRARRSMELIAREDENPKVAEVIYPIMQVNGCHYRGVDVDVGGMEQRKIHMLARELLPKKVVCIHNPVLTGLDGEGKMSSSKGNFIAVDDSPEEIRAKIKKAYCPAGVVEGNPIMEIAKYFLEYPLTIKGPEKFGGDLTVNSYEELESLFKNKELHPMRLKNAVAEELIKILEPIRKRL
B5: pAzFRS.1.t1: pAcFRS variant D158V, I159M, L162D, A167Y, R257G, SEQ ID NO: 11 (protein)
chain: MDEFEMIKRNTSEIISEEELREVLKKDEKSALIGFEPSGKIHLGHYLQIKKMIDLQNAGFDIIILLADLHAYLNQKGELDEIRKIGDYNKKVFEAMGLKAKYVYGSEFQLDKDYTLNVYRLALKTTLKRARRSMELIAREDENPKVAEVIYPIMQVNVMHYDGVDVYVGGMEQRKIHMLARELLPKKVVCIHNPVLTGLDGEGKMSSSKGNFIAVDDSPEEIRAKIKKAYCPAGVVEGNPIMMEIAKYFLEYPLTIKGPEKFGGDLTVNSYEELESLFKNKELHPMRLKNAVAEELIKILEPIRKRL

Assays:
[1] = test system: ELP(30TAG)-GFP; test: ELP expression and purification, yield of purified ELP(30TAG)-GFP; format: cell-based, E. coli
Experimental: Before batch expression, starter cultures (2 mL) of 2×YT media supplemented with 30 μg/mL kanamayacin and 20 μg/mL chloramphenicol were inoculated with transformed cells from a fresh agar plate or from stocks stored at −80° C., and incubated overnight at 34° C. while shaking at 250 rpm. Expression cultures (250 ml flasks containing 50 ml of 2×YT media, antibiotics, 0.2% arabinose and 1 mM of the nsAA) were inoculated with 0.5 ml of the starter culture and incubated at 34° C. for 4 h and then reporter protein expression was induced with 60 μg/mL anhydrotetracyclin.
Cells were harvested 24 h after inoculation by centrifugation at 4,000 g for 15 min at 4° C. The cell pellet was resuspended by vortex in ˜1.5 mL PBS buffer and stored at −80° C. or immediately purified. For purification, resuspended pellets were lysed by ultrasonic disruption (9 cycles of 10 s sonication separated by 40 s intervals). Poly(ethyleneimine) (0.2 mL of 10% solution) was added to each lysed suspension before centrifugation at 15,000 g for 3 min to separate cell debris from the soluble cell lysate.
All ELP constructs were purified by a modified Inverse Transition Cycling (ITC) protocol consisting of multiple “hot” and “cold” spins using sodium citrate to trigger the phase transition. Before purification, the soluble cell lysate was incubated for 1-2 min at ˜65° C. to denature native E. coli proteins. For “hot” spins, the ELP phase transition was triggered by adding sodium citrate to the cell lysate or the product of a previous cycle of ITC at a final concentration of ˜0.5 M. The solutions were then centrifuged at 14,000 g for 3 min and the pellets were resuspended in PBS, followed by a 3-5 min “cold” spin performed without addition of sodium citrate to remove denatured contaminant. Additional rounds of ITC were carried out as needed until sufficient purification was achieved.
Protein concentration was calculated by measuring the OD280 of purified protein stocks according to the following extinction coefficients for ELP(30TAG)-GFP.

[2] = ATP-PPi exchange assay (amino acid activation); format: biochemical; conditions: for Fold change: relative to progenitor pAcFRS
Experimental: A 25 μl ATP-PPi exchange reaction contained the following components: 100 mM HEPES-KOH (pH 7.5), 30 mM KCl, 10 mM MgCl2, 2 mM DTT, 2 mM KF, 2 mM NaPPi, 5 mM ATP, […], 2 μCi/μl of […] (PerkinElmer) and varied concentrations of amino acids (0.25, 0.5, 1.25, 2.5, 5, 10, and 20 mM, respectively). The reactions were incubated at 37° C. Time points were taken at 2 minutes, 5 minutes and 10 minutes by plotting 1 μl aliquots from the reaction immediately to the PEI-cellulose plates (Merck). For each reaction, 1 μl of blank reaction mixture containing no enzymes was set as background. The reaction mixtures were separated on the plates in 1 M urea and 1 M monopotassium phosphate. The plates were then scanned in a Molecular Dynamics Storm 860 phosphorimager (Amersham Biosciences). The ratio of ATP to PPi was determined to monitor reaction progress. The kinetic constants were derived from plotting initial velocity of a series of reactions that contained varied concentrations of amino acids. The data were analyzed by GraFit 5.0 (Erithacus Software).

[3] = test system: tRNA; test: Aminoacylation assay (tRNA charging); format: biochemical; conditions: for Fold change: relative to progenitor pAcFRS
Experimental: Template plasmid containing tRNA gene was purified with the plasmid maxi kit (Qiagen), and 100 μg of plasmid was digested with BstNI (New England Biolabs). The BstNI digested template DNA was purified by phenol chloroform extraction, followed by ethanol precipitation and resolved in double distilled water. A His-tagged T7 RNA polymerase was purified over column of Ni-NTA resin according to manufacturer's instructions (Qiagen). The transcription reaction [40 mM Tris (pH 8); 4 mM each of UTP, CTP, GTP, and ATP at pH 7.0; 22 mM MgCl2; 2 mM spermidine; 10 mM DTT; 6 μg pyrophosphatase (Roche Applied Science); 60 μg/mL BstNI digested DNA template, approximately 0.2 mg/ml T7 RNA polymerase] was performed in 10 ml reaction volumes for overnight at 37° C. The tRNA was purified on 12% denaturing polyacrylamide gel containing 8 M urea and TBE buffer (90 mM Tris, 90 mM boric acid, 2 mM EDTA). UV shadowing illuminates the pure tRNA band, which is excised and extracted three times with 1M sodium acetate pH 5.3 at 4° C. The tRNA extractions were then ethanol precipitated, dissolved in RNase-free distilled water, pooled, and finally desalted using a Biospin 30 column (BioRad). The ratio of aminoacylated tRNA to total tRNA was determined to monitor reaction progress.
The tRNA was refolded by heating to 100° C. for 5 min and slow cooling to room temperature. At 65° C., MgC12, was added to a final concentration of 10 mM to aid folding. A His-tagged CCA adding enzyme was purified over column of Ni-NTA resin according to manufacturer's instructions (Qiagen). 16 μM folded tRNA in 50 mM Tris (pH 8.0), 20 mM MgCl2, 5 mM DTT and 50 μM NaPPi was incubated at room temperature for 1 hour with approximately 0.2 mg/ml CCA-adding enzyme and 1.6 μCi/μl of [α-32P]-labeled ATP (PerkinElmer). The sample was phenol/chloroform extracted and then passed over a Bio-spin 30 column (Bio-Rad) to remove excess ATP.
A 20 μl aminoacylation reaction contained the following components: 50 mM HEPES-KOH (pH 7.2), 25 mM KCl, 10 mM MgCl2, 5 mM DTT, 10 mM ATP, 25 μg/ml pyrophosphatase (Roche Applied Science), 2 mM amino acids. All plateau tRNA aminoacylation levels were determined at 37° C. according to the reactions conditions described above with 500 nM enzyme, 5 μM unlabeled tRNA plus 100 nM 32P-labeled tRNA. Time points were taken at 5 minutes, 20 minutes and 60 minutes by removing 2 μl aliquots from the reaction and immediately quenching the reaction into an ice-cold 3 μl quench solution [0.66 μg/μl nuclease P1 (Sigma) in 100 mM sodium citrate (pH 5.0)]. For each reaction, 2 μl of blank reaction mixture containing no enzymes was added to the quench solution as the start time point. The nuclease P1 mixture was then incubated at room temperature for 30 min and 1 μl aliquots were spotted on PEI-cellulose plates (Merck) and developed in running buffer containing 5% acetic acid and 100 mM ammonium acetate. Radioactive spots for AMP and AA-AMP (representing free tRNA and aminoacyl-tRNA, respectively) were separated and then visualized and quantified by phosphor imaging by a Molecular Dynamics Storm 860 phosphorimager (Amersham Biosciences). The ratio of aminoacylated tRNA to total tRNA was determined to monitor reaction progress.

Molecule	Yield of purified ELP(30TAG)-GFP ([1]; nsAA pAcF, GRO) [mg/L]	Km ([2]; nsAA pAcF) [µM]	kcat ([2]; nsAA pAcF)	Fold change ([2]; nsAA pAcF)	Km ([2]; nsAA pAzF) [µM]	kcat ([2]; nsAA pAzF)	Fold change ([2]; nsAA pAzF)	Km ([3]; nsAA pAcF) [µM]	kcat ([3]; nsAA pAcF)	Fold change ([3]; nsAA pAcF)	Km ([3]; nsAA pAzF) [µM]	kcat ([3]; nsAA pAzF)	Fold change ([3]; nsAA pAzF)	Yield of purified ELP(30TAG)-GFP ([1]; nsAA pAcF, Non-recoded E. coli) [mg/L]	Yield of purified ELP(30TAG)-GFP ([1]; nsAA 4ClF, GRO) [mg/L]	Yield of purified ELP(30TAG)-GFP ([1]; nsAA pAzF, GRO)	Yield of purified ELP(30TAG)-GFP ([1]; nsAA 4CF3F, GRO) [mg/L]	Yield of purified ELP(30TAG)-GFP ([1]; nsAA BuY, GRO) [mg/L]	decrease in aminoacylation for pAzF compared with pAcF ([2]; in vitro biochemical analysis) [fold]	decrease in tRNA charging for pAzF compared with pAcF ([3]; in vitro biochemical analysis) [fold]
B1	52.6 ± 6.3	1680 ± 780	6.12 ± 0.74 ×10^−2 s^−1	5.34	1490 ± 110	3.65 ± 0.62 ×10^−2 s^−1	1.68	16 ± 4	1.12 ± 0.14 ×10^−3 s^−1	9.58	16 ± 1	0.63 ± 0.12 ×10^−3 s^−1	6.33	–	–	–	–	–	–	–
B2	10.5 ± 5.5	7340 ± 1620	5.01 ± 0.48 ×10^−2 s^−1	1	3040 ± 270	4.45 ± 0.13 ×10^−2 s^−1	1	34 ± 6	0.25 ± 0.04 ×10^−3 s^−1	1	34 ± 7	0.23 ± 0.03 ×10^−3 s^−1	1	3.04 ± 1.4	–	–	–	–	–	–
B3	39.05 ± 3.4	–	–	–	1400 ± 350	4.14 ± 0.23 ×10^−2 s^−1	2.02	–	–	–	14 ± 3	0.71 ± 0.13 ×10^−3 s^−1	8.17	–	48.2 ± 11.2	41.9 ± 6^ mg/L	–	–	–	–
B4	–	2810 ± 890	5.43 ± 0.54 ×10^−2 s^−1	2.84	6590 ± 1700	4.22 ± 0.45 ×10^−2 s^−1	0.44	18 ± 2	0.54 ± 0.15 ×10^−3 s^−1	4.10	24 ± 7	0.22 ± 0.05 ×10^−3 s^−1	1.47	–	–	–	53 ± 5.4	64.5 ± 9.7	5	2.8
B5	–	–	–	–	990 ± 130	4.79 ± 0.67 ×10^−2 s^−1	3.32	–	–	–	24 ± 3	0.49 ± 0.17 ×10^−3 s^−1	3.29	–	–	–	–	–	–	–
